Bridges are numbered along the chain shown (N, C = ends). Where no end group is shown, it is not given here. [ ]: non-standard residue; d: D form.
molecular target: dipeptidyl peptidase IV (DPPIV) in plasma of ICR mouse blood (mouse, UniProt P28843 37-760); test: cell-based or functional assay
Sequence (P28843 37-760 limits assumed): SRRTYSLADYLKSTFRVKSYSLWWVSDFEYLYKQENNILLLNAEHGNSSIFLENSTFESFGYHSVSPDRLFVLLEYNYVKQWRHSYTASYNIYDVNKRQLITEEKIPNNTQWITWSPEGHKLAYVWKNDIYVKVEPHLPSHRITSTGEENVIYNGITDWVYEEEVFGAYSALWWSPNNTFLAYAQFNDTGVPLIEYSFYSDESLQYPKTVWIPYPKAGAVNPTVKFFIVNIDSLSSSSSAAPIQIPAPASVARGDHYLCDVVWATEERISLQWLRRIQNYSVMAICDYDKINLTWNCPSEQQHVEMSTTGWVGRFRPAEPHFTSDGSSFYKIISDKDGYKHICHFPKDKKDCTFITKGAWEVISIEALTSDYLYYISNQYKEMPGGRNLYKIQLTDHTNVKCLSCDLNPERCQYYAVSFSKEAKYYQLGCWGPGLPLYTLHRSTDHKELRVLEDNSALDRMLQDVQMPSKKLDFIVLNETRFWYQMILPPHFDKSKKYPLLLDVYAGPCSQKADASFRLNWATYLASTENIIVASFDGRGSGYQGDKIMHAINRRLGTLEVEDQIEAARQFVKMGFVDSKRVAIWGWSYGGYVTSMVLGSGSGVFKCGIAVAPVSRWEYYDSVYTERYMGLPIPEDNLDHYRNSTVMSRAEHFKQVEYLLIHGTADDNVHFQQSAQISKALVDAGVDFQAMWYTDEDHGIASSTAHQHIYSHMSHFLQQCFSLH

| % DPPIV Activity (Saline) | Binder |
| --- | --- |
| 51 % relative to saline control | [code r][code r]VP-NH2 (not fully specified) [SEQ ID NO 62] |
| 93 % relative to saline control | Ac-KSRIVP-NH2 [SEQ ID NO 2] |
| 30 % relative to saline control | CRIVPAC (disulfide 1-7; not fully specified (C-terminus)) [SEQ ID NO 32] |

— patent publication US20090186824A1 (INIMEX PHARMACEUTICALS, published 2009)
